Assay results as given in US20220273710A1 (AUTOLUS, published 2022).

T1: Recombinant purified CD79b (R&D systems) (human, UniProt P40259 29-159)
T1 construct: Bought protein
T1 sequence: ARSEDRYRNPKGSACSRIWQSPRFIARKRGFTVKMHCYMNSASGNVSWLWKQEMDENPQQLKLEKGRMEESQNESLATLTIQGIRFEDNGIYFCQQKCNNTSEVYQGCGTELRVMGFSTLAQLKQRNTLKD


These binders were tested against T1, Recombinant purified CD79b (R&D systems) (assay: SPR, Biacore 8K, antibody immobilised on CM5 chip, CD79b as analyte, 25° C, 1:1 Langmuir fit).
Text: Recombinant anti-CD79b antibodies Polatuzumab and newly generated antibodies 2E8, 3H2, and 7G4 were immobilised on individual flow cells on a Series S CM5 sensor chip (GE Healthcare) to a density of 150-280 RU using a Biacore 8K instrument. HBS-P+buffer was used as running buffer under all experimental conditions. Recombinant purified CD79b (R&D systems) at known concentrations was used as the ‘analyte’ and injected over the respective flow cells with 150s contact time and 300s dissociation, at 30 μl/minute of flow rate and a constant temperature of 25° C. In each experiment, flow cell 1 was unmodified and used for reference subtraction. A ‘0 concentration’ sensorgram of buffer alone was used as a double reference subtraction to factor for drift. Data were fit to a 1:1 Langmuir binding model.

Row | Binder | Kd [nM] | koff [s⁻¹] | kon [M⁻¹ s⁻¹]
1 | Polatuzumab (antibody, V domains shown, polatuzumab'; also called humanised anti-CD79b 2F2; anti-CD79b antibody polatuzumab) VH: EVQLVESGGGLVQPGGSLRLSCAASGYTFSSYWIEWVRQAPGKGLEWIGEILPGGGDTNYNEIFKGRATFSADTSKNTAYLQMNSLRAEDTAVYYCTRRVPIRLDYWGQGTLVTVSS VL: DIQLTQSPSSLSASVGDRVTITCKASQSVDYEGDSFLNWYQQKPGKAPKLLIYAASNLESGVPSRFSGSGSGTDFTLTISSLQPEDFATYYCQQSNEDPLTFGQGTKVEIKR | 6.88 | 0.00806 | 1.17e+06
2 | 2E8 (antibody, mouse IgG2a, V domains shown, also called 2E8 antibody; clone 2E8) VH: AVQLVESGGGLVQPKESLKISCAASGFTFSNAAMYWVRQAPGKGLEWVARIRTKPNNYATNYADSVKGRFTISRDDSKSMVYLQMDNLKTEDTAMYYCTYYDGSSYAMDAWGQGTSVTVSS VL: DVVLTQTPVSLSVTLGDQASISCRSSQSLEYSDGYTYLDWYLQKPGQSPQLLIYEVSNRFSGVPDRFIGSGSGTDFTLKISRVEPEDLGVYYCFQATHDPYTFGAGTKLEIK | 7.11 | 0.0805 | 1.13e+07

These reach a lower Kd. Values come first.

Row | Kd [nM] | koff [s⁻¹] | kon [M⁻¹ s⁻¹] | Binder
3 | 2.62 | 0.00431 | 1.64e+06 | 3H2 (antibody, mouse IgG2a, V domains shown, also called 3H2 antibody; clone 3H2) VH: AVQLVESGGGLVQPKESLKLSCAASGFTFSHTAMYWVRQAPGKGLECVARIRIQPKNYATYYADSVKGRFTISRDDSKSMVYLQMDNLKTEDTAMYYCTAAGFGFDYWGQGVMVTVSS VL: DVVLTQTPVSLSVTLGDQASISCRSSQSLEYSDGNTYLEWYLQKPGQSPQLLIYEVSKRFSGVPDRFIGSGSGTDFTLKISRVEPEDLGIYYCLQATHDPFTFGSGTKLEIK
4 | 3.1 |  |  | 7G4 (antibody, mouse IgG2a, V domains shown, also called 7G4 antibody; clone 7G4) VH: AVQLVESGGGLVQPKESLKISCAASGFTFSNAAMYWVRQAPGKGLEWVARIRTKPNNYATNYADSVKGRFTISRDDSKSMVYLQMDNLKTEDTAMYYCTYYDGSSYAMDAWGQGTSVTVSS VL: DVVLTQTPVSLSVTLGDQASISCRSSQSLEYSDGYTYLDWYLQKPGQSPQLLIYEISNRFSGVPDRFIGSGSGTDFTLKISRVEPEDLGVYYCFQATHDPYTFGAGTKLEIK
